The record followed here is US20240240209A1, “SYNTHESIS OF ENANTIOPURE CIS-A-IRONE FROM A RENEWABLE CARBON SOURCE” (Agency for Science, Technology and Research, priority 2021, published 2024).

This data set in a line: Cell lysate reaction of pMT enzymes with psi-ionone, irones quantified by HS-SPME-GCMS. Format: biochemical. To be noted: for irone production / methyltransferase activity towards psi-ionone (in words): cell lysate reaction, vs parent or control; for cis-α-irone content (percentage of cis-α-irone in the irone mixture): cell extracts with psi-ionone; for fold change in cis-α-irone produced: AUC vs non-mutated (=1). The procedure: Using the structure of pMT1 in complex with the cofactor S-adenosyl-L-homocysteine (SAH) and the substrate teleocidin A1 (PDB id: 5GM2) as a template, pMT1 bound to each of the four isomers of α-irone was modelled with the aim of identifying amino acid residues that could be critical to increase cis-α-irone or decrease trans-α-irone production (FIGS. 2d and 2e). […] Site-directed mutagenesis of the 24 residues was carried out with degenerative primers. Subsequently, the mutants of each site were pooled together, and examined if the activity or product-selectivity of the pooled mutants were increased (FIG. 8). This reduced the number of screening reactions to 24, which is manageable when a high-throughput enzymatic assay is not available. […] One residue was chosen and subjected to site-saturation mutagenesis by using degenerative primers containing NNN or NNK. The plasmid library was then transformed into E. coli BL21 (DE3) cells and plated on agar plate containing autoinduction media^19. […] Subsequently, the colonies were collected and resuspended in phosphate saline buffer. Equal number of cells was taken for lysis and cell lysate reactions were carried out in capped SPME-GC vials at 28° C. for 2 days. HS-SPME-GCMS analysis was used to quantify the amount of irones produced by each pooled-colony reaction. […] 24 residues including the control Gly85 (G85m) were subjected to site-saturation mutagenesis, using pMT1 as the template. […] The amount of cis-α-irone produced was estimated based on the area under the gas chromatogram curve (AUC). The fold change is calculated by comparing the AUC of cis-α-irone produced by the mutant enzyme to that of non-mutated.
For each pMT mutant, it was transformed into BL21 and grown in autoinduction media with 5 mM lactose at 20° C. for 36 hrs. Then, cells were pelleted and concentrated 10 times by adding 1 ml of PBS. The OD600 was measured and 40*600 OD*ul cells were transferred into a new 1.5 ml tube. The cells were spun down and resuspended in 600 μl of lysis buffer (1×DNase buffer, 150 mM NaCl, 0.5% glycerol, 1 mg/ml lysozyme and 20U of DNasel). The cells were incubated for 2 hrs at 20° C. with shaking at 300 rpm. Following that, 2 cycles of freeze-thaw was done to completely lyse the cells. At the end of the 2nd thawing, the cell lysate was used to setup a 1 ml reaction in 2 ml GC vials. The reaction consisted of 50 mM Tris (pH7), 10 mM MgCl2, 60 mM NaCl, 0.2 mM SAM and 10 mg/L of psi-ionone and caryophyllene each. To this, 500 μl of cell lysate was added while the remaining 100 μl was used for SDS-PAGE to analyze the total and soluble protein expression. The reaction was incubated for 2 days at 28° C., 300 rpm prior to extraction of cis-α-irone with 500 μl hexane. From this, 20 μl of organic layer was taken into 180 μl hexane for GCMS analysis.
For the mutant pMT activity screening, the reactants and products were analyzed by head space solid phase microextraction (HS-SPME) coupled with an Agilent 5977B gas chromatography (GC) system equipped with Agilent DB-5 ms column (30 m×250 μm×0.25 μm) and mass spectrometry (MS) with high efficiency source. The reaction mixtures were carried out in SPME vials which were incubated at 60° C. for 20 mins to allow the release of volatile compounds. The absorbent fiber (50/30 μm divinylbenzol/carboxen/polydimethyl-SPME fiber, SUPELCO) was then exposed to the headspace of the vial for 20 mins. The extracted analytes were desorbed at the GC inlet at 250° C. for 1 min and injected into GC with a split ratio of 200:1. The GC oven temperature increased from 50° C. to 140° C. at a rate of 10° C./min and held at 140° C. for 10 min. Subsequently, the temperature was increased to 320° C. at a rate of 60° C./min and held at 320° C. for 2 mins.

Entries after “also recorded” stand apart in the source; their conditions may differ.

B1: ScMT: about 66% homologous enzyme from Streptomyces clavuligerus (protein, listed as Streptomyces clavuligerus)
chain: MPQELAGELRVTAAQVGAWYDQFGDIYHQTLGESIHCGLWFPPDEPHPARVDLVSLSSEAQDRFTDYLIKTLDPHADQHVLDIGCGTGRSALRLSQQRGAKVTGVAISKVQIEHANRLAETHDLSDRLVFEHADAMHLPYEDESFDSAWAIESLCHMDRAKALREAYRVLRPGGDFLLLESVLTNPLTEAEATSLDTMLAANTPLWLPEFFELITRAGFETLELKDLSANLAMTMNVLELVCHDRREEFTRRFGAEFTELLMAGLPEARNITARKTRFFMLLLRKPPVPAN
As to B1, the “irone production / methyltransferase activity towards psi-ionone (in words)” value is recorded as “not active towards psi-ionone”.

B2: SaMT: methyltransferase from Streptomyces albireticuli, about 68% sequence identity to pMT1 (protein, listed as Streptomyces albireticuli)
chain: MPQESAQELKVTADEVGDWYDRFGDIYHETLGESVHCGLWFPPDEPHPTSMDLVDLSSRAQDRYTDYLIETLDPRPGDHVLDIGCGTGRSALRLVQQRDARVTGVAISKEQIARADRLANEHGLTDRLTFAYADAQALPYEDGTFDRAWAVESICHMDRAKALQEAWRVLRPGGDLMVLESVLTGELTAEDTAVFQVMLASNLPPTLPEFFGLVGDAGFETLELKDLSANLAMTMNVMALVCHDRKEEFTERFGAEFMEGVVQGLPKAREVVARKTRFFLVMLRKPLA
For B2, the “irone production / methyltransferase activity towards psi-ionone (in words)” value is “converted psi-ionone to predominantly trans-α-irone”.

B3: pMT11: pMT1 with Y200F S182E L273V L180A A202L Y65F C156D T91P (protein)
chain: MPQEARTPQQQVTADEVGDWYDKFGEVYHLTLGESVHCGLWFPPDAPVPQDMELVTMSSQAQDRFTDYLIETLDPKAGQHLLDIGCGTGRPALKAARQRGIAVTGVAVSKEQIAAANRLAAGHGLTERLTFEVADAMRLPYEDESFDCAWAIESLDHMDRAKALGEAWRVLKPGGDLLVAEEVVTEELTEPETALFETLFALNVPPRLGEFFDIVSGAGFHTLSLKDLSANLAMTMNVFALGVYSRRAEFTERFGAEFVDGLLAGLGSAQETVIRKTRFFMATLRKPAV
modifications: Modified from pMT1
notes: pMT1 with Y200F S182E L273V L180A A202L Y65F C156D T91P
As to B3, the “irone production / methyltransferase activity towards psi-ionone (in words)” value was “improved cis-α-irone production both by the fold change and percentage”.

B4: P191S: pMT12 with P191S (protein)
chain: MPQEARTPQQQVTADEVGDWYDKFGEVYHLTLGESVHCGLWFPPDAPVPQDMELVTMSSQAQDRFTDYLIETLDPKAGQHLLDIGCGTGRPALKAARQRGIAVTGVAVSKEQIAAANRLAAGHGLTERLTFEVADAMRLPYEDESFDCAWAIESLDHMDRAKALGEAWRVLKPGGDLLVAEEVVTEELTESETALFETLFALNVPPRLGEFFDIVSGAGFHTLSLKDLSADLAMTMNVFALGVYSRRAEFTERFGAEFVDGLLAGLGSAQETVIRKTRFFMATLRKPAV
modifications: Modified from pMT1
As to B4, for the setting “single mutations vs parent (pMT7 or pMT12)”, the “in-vitro production of cis-α-irone (in words)” value is “moderate increase”.

B5: pMT14: pMT13 with E197R (protein)
chain: MPQEARTPQQQVTADEVGDWYDKFGEVYHLTLGESVHCGLWFPPDAPVPQDMELVTMSSQAQDRFTDYLIETLDPKAGQHLLDIGCGTGRPALKAARQRGIAVTGVAVSKEQIAAANRLAAGHGLTERLTFEVADAMRLPYEDESFDCAWAIESLDHMDRAKALGEAWRVLKPGGDLLVAEEVVTEELTEPETALFRTLFALNVPPRLGEFFDIVSGAGFHTLSLKDLSADLAMTMNVFALGVAARRAEFTERFGAEFVDGLLAGLPSAQETVIRKTRFFMATLRKPAV
modifications: Modified from pMT1
notes: pMT13 with E197R
Take B5: the “irone production / methyltransferase activity towards psi-ionone (in words)” value is listed as “reduced the fold change of cis-α-irone to a similar level as pMT10”.

B6: pMT13: pMT12 with Y244A S245A G267P (protein)
chain: MPQEARTPQQQVTADEVGDWYDKFGEVYHLTLGESVHCGLWFPPDAPVPQDMELVTMSSQAQDRFTDYLIETLDPKAGQHLLDIGCGTGRPALKAARQRGIAVTGVAVSKEQIAAANRLAAGHGLTERLTFEVADAMRLPYEDESFDCAWAIESLDHMDRAKALGEAWRVLKPGGDLLVAEEVVTEELTEPETALFETLFALNVPPRLGEFFDIVSGAGFHTLSLKDLSADLAMTMNVFALGVAARRAEFTERFGAEFVDGLLAGLPSAQETVIRKTRFFMATLRKPAV
modifications: Modified from pMT1
notes: pMT12 with Y244A S245A G267P
Regarding B6, the “irone production / methyltransferase activity towards psi-ionone (in words)” value was “maintained the percentage of cis-α-irone produced while further improving the absolute amount produced”.

B7: pMT4: pMT1 with Y200F S182E L273V (protein)
chain: MPQEARTPQQQVTADEVGDWYDKFGEVYHLTLGESVHCGLWFPPDAPVPQDMELVTMSSQAQDRYTDYLIETLDPKAGQHLLDIGCGTGRTALKAARQRGIAVTGVAVSKEQIAAANRLAAGHGLTERLTFEVADAMRLPYEDESFDCAWAIESLCHMDRAKALGEAWRVLKPGGDLLVLEEVVTEELTEPETALFETLFAANVPPRLGEFFDIVSGAGFHTLSLKDLSANLAMTMNVFALGVYSRRAEFTERFGAEFVDGLLAGLGSAQETVIRKTRFFMATLRKPAV
modifications: Modified from pMT1
notes: pMT1 with Y200F S182E L273V
On to B7, for which the “cis-α-irone content (percentage of cis-α-irone in the irone mixture)” value is reported as around 80%; the “irone production / methyltransferase activity towards psi-ionone (in words)” value was “highest cis-α-irone and lowest trans-α-irone production”. In addition, the “fold change in cis-α-irone produced” value (pMT3_L273 mutants) came to 1.5. Besides, for the setting “pMT4_L180 mutants”, the “fold change in cis-α-irone produced” value came to 1. Also, under “pMT4_T277 mutants”, the “fold change in cis-α-irone produced” value was 1.0.

B8: pMT3: pMT1 with Y200F S182E (protein)
chain: MPQEARTPQQQVTADEVGDWYDKFGEVYHLTLGESVHCGLWFPPDAPVPQDMELVTMSSQAQDRYTDYLIETLDPKAGQHLLDIGCGTGRTALKAARQRGIAVTGVAVSKEQIAAANRLAAGHGLTERLTFEVADAMRLPYEDESFDCAWAIESLCHMDRAKALGEAWRVLKPGGDLLVLEEVVTEELTEPETALFETLFAANVPPRLGEFFDIVSGAGFHTLSLKDLSANLAMTMNVFALGVYSRRAEFTERFGAEFVDGLLAGLGSAQETLIRKTRFFMATLRKPAV
modifications: Modified from pMT1
notes: pMT1 with Y200F S182E
On to B8, for which the “cis-α-irone content (percentage of cis-α-irone in the irone mixture)” value is reported as 74% and the “irone production / methyltransferase activity towards psi-ionone (in words)” value was “significant increase in cis-α-irone was detected; also recorded: predominantly 1R5S was produced”. Where the note is “pMT2_S182 mutants”, the “fold change in cis-α-irone produced” value is 5.4. Further, where the note is “pMT3_E153 mutants”, the “fold change in cis-α-irone produced” value came out at 1.0. In addition, under “pMT3_L273 mutants”, the “fold change in cis-α-irone produced” value is 1.0. Further, the “improvement of total turnover number (TTN)” value (vs pMT1, TTN = cis-α-irone produced / soluble pMT enzyme) is given as “more than 1,000 fold”.
